Experimental data: publication doi:10.1101/2021.04.15.439997

Key:
[1] = molecular target: Strep-tagged glucose-6-phosphate dehydrogenase (G6PDH) from Synechocystis (Synechocystis sp. PCC 6803) (UniProt P73411)
[2] = molecular target: Strep-tagged glucose-6-phosphate dehydrogenase (G6PDH) from Synechocystis (Synechocystis sp. PCC 6803) (UniProt P73411); assay: SEC-MALS

Sequence of Strep-tagged glucose-6-phosphate dehydrogenase (G6PDH) from Synechocystis (Synechocystis sp. PCC 6803) (P73411 whole entry): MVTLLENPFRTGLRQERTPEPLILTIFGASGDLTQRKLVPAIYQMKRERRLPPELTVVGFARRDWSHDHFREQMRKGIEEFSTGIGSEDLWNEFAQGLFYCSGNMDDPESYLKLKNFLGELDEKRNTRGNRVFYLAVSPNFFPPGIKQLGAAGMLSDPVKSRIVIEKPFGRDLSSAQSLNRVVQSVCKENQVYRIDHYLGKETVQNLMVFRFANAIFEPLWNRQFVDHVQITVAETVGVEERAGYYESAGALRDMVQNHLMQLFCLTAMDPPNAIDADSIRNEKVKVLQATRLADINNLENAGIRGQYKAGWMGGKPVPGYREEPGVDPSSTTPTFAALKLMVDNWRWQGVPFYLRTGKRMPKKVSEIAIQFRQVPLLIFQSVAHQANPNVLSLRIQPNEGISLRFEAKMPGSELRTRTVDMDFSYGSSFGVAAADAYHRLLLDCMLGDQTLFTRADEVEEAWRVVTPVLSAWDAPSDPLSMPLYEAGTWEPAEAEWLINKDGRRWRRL

For “Strep-tagged oxidative pentose phosphate cycle protein (OpcA) from Synechocystis (natural protein)”, the G6PDH activity after pre-incubation of OpcA with DTTred, compared to the control [1] was 30%, the G6PDH activity after pre-incubation of OpcA with Synechocystis thioredoxin TxrA [1] was 10% and the G6PDH enzyme kinetics: substrate affinity with OpcA added [1] was 6 fold. For the same substance, the stoichiometry N (subunits of OpcA per G6PDH tetramer) [2] was 4.
